# The RNAGym collection of RNA variant scans (doi:10.7554/elife.90254)
# B1: LINE1-full (parent)
# chain: UACGUAGGUGGUUUUCCCCUGAUAGUGCUAAGGGGGCCUGGAAGUUUGGACUGGGCAGAGCUCAACACAGCGUGGCAAAGUGGCUGUGGCUAGACUGCCUCUCUGGAUUCCUCGUCACUCAGCAGGGCAUCUCUGAGAGAAAUGCC
# Variants of: B1
# Experiment: self-cleavage, relative activity (ratio to wild type); higher = more cleavage; in vitro, sequencing; the parent is a self-cleaving ribozyme
row,Variant,self-cleavage
1,U119C C145U,1.25
2,U115C A141U,1.27
3,G114C A138G,1.41
4,C113U A129G,1.34
5,C113U A129U,1.86
6,U115A A124U,1.79
7,C123A A141G,1.35
8,A124C A138C,1.86
9,U115C C131A,0.47
10,C123A,1.19
11,C123U,1.16
12,C123G,1.36
13,U115A A129G,1.9
14,U115A A129U,1.04
15,A117G U134A,1.37
16,U119C C128U,1.13
17,A124C,1.56
18,A121G G125A,1.29
19,A121U C131U,0.58
20,C113U U143C,1.05
21,U112C U143G,1.81
22,C113G G125U,1.66
23,C116U A121G,1.57
24,U112G A142G,1.27

row,Variant,self-cleavage
1,U112C G125A,1.6
2,C123G C133A,1.46
3,A121G C145A,1.6
4,A121G A124G,0.97
5,G114U A142C,0.95
6,G114A U132A,1.64
7,U119C A129U,1.82
8,A121G U143G,0.5
9,A121G U143A,0.91
10,A117C G144A,1.79
11,G114U A141G,1.86
12,C123A A140G,1.42
13,C113U C123U,1.35
14,G122U C123U,0.8
15,C113A U134C,0.33
16,A117C G126A,1.64
17,C116U A129G,0.93
18,U119G A138G,2.33
19,U119A G126A,1.3
20,A121G A136G,1.65
21,C120U A141G,1.32
22,C123U U130A,1.72
23,C123U U130C,1.74
24,A117U G122U,1.72

row,Variant,self-cleavage
1,A117G U132A,0.59
2,A117G U132C,1.8
3,G114A G127A,1.74
4,G114A G127C,1.34
5,G114A A138G,1.47
6,G114A U134C,1.13
7,G114A G122U,1.5
8,U119A U134A,1.42
9,U115C,1.58
10,U115G,1.5
11,U115A,1.36
12,A121G A141G,1.65
13,A117G C118U,1.44
14,C113A U130C,0.44
15,G114A A136U,2.15
16,A121U U132A,1.36
17,C113U A124G,1.31
18,A117G G126A,1.96
19,U115G A136G,1.53
20,A117U U119C,1.73
21,G114A G125U,1.49
22,C116A A124G,1.25
23,A121G A142G,1.48
24,C116A A142C,1.54

row,Variant,self-cleavage
1,A121G A138G,1.86
2,A121G A138U,1.59
3,A121G A138C,1.71
4,A121C A136G,1.72
5,U119C U143C,1.49
6,C120U A129G,1.84
7,C113U A117C,1.68
8,C113U A117G,1.54
9,U119A U130C,1.85
10,U112C G135A,1.44
11,G122A U134C,1.43
12,C123U A138G,1.91
13,A117U G126C,1.47
14,A117U A136G,1.51
15,A117U A136U,1.67
16,U115C G144A,2.69
17,C113U A141G,0.94
18,A117G A142G,1.25
19,U115C U130G,0.66
20,U119C U130A,1.93
21,U119C U130C,1.72
22,U119C G135A,2.34
23,U112C C128U,1.35
24,A121U A141G,1.24

row,Variant,self-cleavage
1,U112C C120U,1.37
2,C123G A124G,0.74
3,G122C A136U,1.96
4,U115C U119C,2.04
5,A117U C128U,0.86
6,A117U C128A,0.99
7,C116U A140U,0.71
8,A121U G126A,0.83
9,C113U C131G,1.32
10,U119A G122C,1.65
11,G122C A140G,1.36
12,C116U U132C,0.91
13,U115A A136G,1.68
14,C116A U143C,0.71
15,A121G C128U,1.6
16,G114A A141G,0.89
17,C113U A142G,0.91
18,C113U U115C,1
19,C113U U115A,1.05
20,U115G U119A,1.36
21,C120G A129G,1.23
22,A117U U132C,1.37
23,A117U U132G,1.99
24,U119G U134C,1.76

row,Variant,self-cleavage
1,C120U C123A,1.78
2,C123A U134C,1.04
3,U112C U130A,1.59
4,A121G U130A,1.25
5,A121G U130C,1.14
6,U115G C145U,1.1
7,U115G A140G,2
8,U115C A138G,1.79
9,U115A U132G,1.84
10,U115A U132C,1.88
11,U115A U132A,1.03
12,G114A A121G,1.32
13,C113U U119A,0.82
14,C113U G126A,1.62
15,U115C U143G,2.45
16,U115C G122A,1.77
17,C116U A138U,1.41
18,C113A U115A,1.55
19,C113A U115C,1.5
20,G122A A142G,0.42
21,C123G U132C,1.43
22,A121U U134C,1.35
23,C116U A141G,1.42
24,C113G U119A,1.38

row,Variant,self-cleavage
1,G122A A138G,0.78
2,U119C A124G,1.62
3,U119C A124U,1.58
4,A121G A140G,1.84
5,A121U A129U,1.41
6,U112G A117U,1.92
7,C118U U143A,1.31
8,A121G A129U,1.59
9,A121G A129G,1.58
10,A121U U143G,2
11,A117C A121U,2.02
12,C123U G125C,1.1
13,A117G C145U,1.33
14,U112C G144A,1.58
15,C113A A136G,0.91
16,A117U A138U,1.16
17,A117U A138G,1.52
18,U115A A117U,1.82
19,U119C G144A,1.26
20,U119A A129U,1.37
21,C118U A138U,0.2
22,C118U A138G,1.18
23,U119A A142G,1.48
